Experimental findings from US20250102513A1 are described below.

The target of assay [1] is PA peptide. Put plainly: >.
The target of assay [2] is PA peptide. The experiment in a line: three sequential binding/encoding cycles with cycle-specific barcodes (BC4, BC5, BC13); NGS of the final product.

The substance anti-PA antibody (Wako Chemicals) showed a share of extended recording tags with all three cycle barcodes with PA peptide [1] of 78%. In addition, in the assay with PA peptide [2], the share of extended recording tags with one barcode turned out to be 1.1% and the share of extended recording tags with two barcodes was 20.7%.
